Legend:
[1] = target: BG505 SOSIP.664 gp140 trimer (HIV-1); experiment: negative stain EM
CH0505_CON D7gp120/293i = experiment: ELISA
CH505.M10D8gp120 = experiment: ELISA
CH505.M11D8gp120/293F = experiment: ELISA
CH505.M19D8gp120 = experiment: ELISA
CH505.M21D8gp120/293F = experiment: ELISA
CH505.M5D8gp120293F = experiment: ELISA
CH505.M7D8gp120/293F = experiment: ELISA
CH505.M9D8gp120/293F = experiment: ELISA
[2] = target: CH505.TF mutant gp120 M20 (HIV-1); experiment: ELISA
[3] = target: CH505.TF mutant gp120 M6 (HIV-1); experiment: ELISA
[4] = target: CH505.TF mutant gp120 M8 (HIV-1); experiment: ELISA
CH505.w30.12D8gp120 = experiment: ELISA
CH505w020.14D8gp120 = experiment: ELISA
CH505w030.20D8gp120/293F = experiment: ELISA
CH505w136.B18D8gp120 = experiment: ELISA
Centromere B [5] = target: Centromere B (UniProt P07199); experiment: AtheNA, Ab 25 ug/ml
Chain of Centromere B (P07199 whole entry): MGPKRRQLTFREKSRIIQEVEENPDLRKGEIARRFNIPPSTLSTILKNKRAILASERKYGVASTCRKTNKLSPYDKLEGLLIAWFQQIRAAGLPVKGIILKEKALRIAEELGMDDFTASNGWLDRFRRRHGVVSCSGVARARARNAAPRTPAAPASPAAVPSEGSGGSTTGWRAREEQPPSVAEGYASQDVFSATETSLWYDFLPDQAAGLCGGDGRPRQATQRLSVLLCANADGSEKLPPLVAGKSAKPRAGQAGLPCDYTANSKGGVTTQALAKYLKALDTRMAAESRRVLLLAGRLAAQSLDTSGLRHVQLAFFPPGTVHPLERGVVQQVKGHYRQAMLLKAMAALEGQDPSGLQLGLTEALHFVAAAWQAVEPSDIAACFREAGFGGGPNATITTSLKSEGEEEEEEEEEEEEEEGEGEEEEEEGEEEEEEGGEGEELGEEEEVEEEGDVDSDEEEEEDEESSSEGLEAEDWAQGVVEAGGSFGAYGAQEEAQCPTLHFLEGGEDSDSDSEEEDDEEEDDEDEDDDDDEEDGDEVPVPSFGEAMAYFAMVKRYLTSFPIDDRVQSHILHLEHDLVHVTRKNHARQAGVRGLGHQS

Histones [6] = experiment: AtheNA, Ab 25 ug/ml
Jo-1 [7] = target: Jo-1 (UniProt P12081); experiment: AtheNA, Ab 25 ug/ml
Chain of Jo-1 (P12081 whole entry): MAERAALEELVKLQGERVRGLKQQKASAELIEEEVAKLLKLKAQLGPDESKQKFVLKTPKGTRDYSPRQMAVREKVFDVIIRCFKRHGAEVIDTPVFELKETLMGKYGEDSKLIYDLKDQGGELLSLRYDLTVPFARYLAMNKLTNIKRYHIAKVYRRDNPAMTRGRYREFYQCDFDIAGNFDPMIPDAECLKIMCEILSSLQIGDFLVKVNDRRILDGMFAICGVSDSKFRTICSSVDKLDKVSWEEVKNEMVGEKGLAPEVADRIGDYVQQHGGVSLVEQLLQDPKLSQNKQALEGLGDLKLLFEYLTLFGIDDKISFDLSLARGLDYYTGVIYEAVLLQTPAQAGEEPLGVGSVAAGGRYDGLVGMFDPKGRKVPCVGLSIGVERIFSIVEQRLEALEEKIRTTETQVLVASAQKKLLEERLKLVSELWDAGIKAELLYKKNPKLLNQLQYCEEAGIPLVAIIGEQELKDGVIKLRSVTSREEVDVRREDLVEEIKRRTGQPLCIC

RNP (ribonucleoprotein) [8] = experiment: AtheNA, Ab 25 ug/ml
SSA [9] = experiment: AtheNA, Ab 25 ug/ml
SSB [10] = target: SSB (UniProt P05455); experiment: AtheNA, Ab 25 ug/ml
Chain of SSB (P05455 whole entry): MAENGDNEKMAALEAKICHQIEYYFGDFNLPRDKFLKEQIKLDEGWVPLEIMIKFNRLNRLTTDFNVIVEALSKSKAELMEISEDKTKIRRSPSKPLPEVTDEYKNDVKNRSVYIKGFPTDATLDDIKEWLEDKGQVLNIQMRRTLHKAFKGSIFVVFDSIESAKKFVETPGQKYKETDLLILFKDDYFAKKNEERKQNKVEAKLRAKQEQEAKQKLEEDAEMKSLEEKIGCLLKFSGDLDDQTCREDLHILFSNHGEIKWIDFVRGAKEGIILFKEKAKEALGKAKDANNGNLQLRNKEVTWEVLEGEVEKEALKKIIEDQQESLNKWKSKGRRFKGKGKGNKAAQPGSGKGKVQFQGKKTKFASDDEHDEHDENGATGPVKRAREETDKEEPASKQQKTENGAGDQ

Scl-70 [11] = target: Scl-70 (UniProt P11387); experiment: AtheNA, Ab 25 ug/ml
Chain of Scl-70 (P11387 whole entry): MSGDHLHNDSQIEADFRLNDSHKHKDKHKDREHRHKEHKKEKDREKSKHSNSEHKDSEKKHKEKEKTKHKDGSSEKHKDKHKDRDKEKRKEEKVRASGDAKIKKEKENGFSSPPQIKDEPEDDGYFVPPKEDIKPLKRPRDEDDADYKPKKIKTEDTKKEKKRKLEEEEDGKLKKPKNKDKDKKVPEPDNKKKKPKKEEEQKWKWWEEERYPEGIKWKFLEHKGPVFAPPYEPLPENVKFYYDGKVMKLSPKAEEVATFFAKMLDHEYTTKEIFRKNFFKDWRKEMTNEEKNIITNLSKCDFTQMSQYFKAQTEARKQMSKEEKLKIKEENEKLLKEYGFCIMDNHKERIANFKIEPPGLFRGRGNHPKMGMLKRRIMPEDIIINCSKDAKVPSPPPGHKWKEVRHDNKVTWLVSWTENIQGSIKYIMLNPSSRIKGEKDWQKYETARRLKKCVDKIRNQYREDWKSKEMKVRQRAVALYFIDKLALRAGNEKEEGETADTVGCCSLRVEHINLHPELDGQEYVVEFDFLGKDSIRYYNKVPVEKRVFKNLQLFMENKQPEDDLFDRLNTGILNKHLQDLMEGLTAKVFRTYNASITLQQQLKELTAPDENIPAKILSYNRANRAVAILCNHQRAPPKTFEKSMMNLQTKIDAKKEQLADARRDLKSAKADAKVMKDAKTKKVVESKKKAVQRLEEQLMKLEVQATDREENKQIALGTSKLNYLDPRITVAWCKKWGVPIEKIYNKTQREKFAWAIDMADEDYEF

Sm (Smith antigen) [12] = experiment: AtheNA, Ab 25 ug/ml
Histones [13] = experiment: AtheNA, Ab 50 ug/ml
Jo-1 [14] = target: Jo-1 (UniProt P12081); experiment: AtheNA, Ab 50 ug/ml
SSA [15] = experiment: AtheNA, Ab 50 ug/ml
SSB [16] = target: SSB (UniProt P05455); experiment: AtheNA, Ab 50 ug/ml
Sm (Smith antigen) [17] = experiment: AtheNA, Ab 50 ug/ml
Centromere B [18] = target: Centromere B (UniProt P07199); experiment: AtheNA, Ab 12.5 ug/ml
Histones [19] = experiment: AtheNA, Ab 12.5 ug/ml
Jo-1 [20] = target: Jo-1 (UniProt P12081); experiment: AtheNA, Ab 12.5 ug/ml
RNP (ribonucleoprotein) [21] = experiment: AtheNA, Ab 12.5 ug/ml
SSA [22] = experiment: AtheNA, Ab 12.5 ug/ml
SSB [23] = target: SSB (UniProt P05455); experiment: AtheNA, Ab 12.5 ug/ml
Scl-70 [24] = target: Scl-70 (UniProt P11387); experiment: AtheNA, Ab 12.5 ug/ml
Sm (Smith antigen) [25] = experiment: AtheNA, Ab 12.5 ug/ml
Centromere B [26] = target: Centromere B (UniProt P07199); experiment: AtheNA, Ab 6.25 ug/ml
Histones [27] = experiment: AtheNA, Ab 6.25 ug/ml
Jo-1 [28] = target: Jo-1 (UniProt P12081); experiment: AtheNA, Ab 6.25 ug/ml
RNP (ribonucleoprotein) [29] = experiment: AtheNA, Ab 6.25 ug/ml
SSA [30] = experiment: AtheNA, Ab 6.25 ug/ml
SSB [31] = target: SSB (UniProt P05455); experiment: AtheNA, Ab 6.25 ug/ml
Scl-70 [32] = target: Scl-70 (UniProt P11387); experiment: AtheNA, Ab 6.25 ug/ml
Sm (Smith antigen) [33] = experiment: AtheNA, Ab 6.25 ug/ml
[34] = target: HIV-1 CH505 transmitted/founder gp120 Env (HIV-1); experiment: competition ELISA, blocking of sCD4 binding to gp120
[35] = target: HIV-1 CH505 transmitted/founder gp120 Env (HIV-1); experiment: competition ELISA, blocking of CH106 binding to gp120

With CH103 Fab the stoichiometry (Fabs per trimer) (Fabs per trimer) [1] was 3.

In the case of CH235 IA1 (antibody), the LogAUC (CH0505_CON D7gp120/293i) is reported as 6.89, the LogAUC (CH505.M10D8gp120) is reported as 7.08 and the LogAUC (CH505.M11D8gp120/293F) is reported as 2.85. It also gave a LogAUC (CH505.M19D8gp120) of 2.78, a LogAUC (CH505.M21D8gp120/293F) of 0 and a LogAUC (CH505.M5D8gp120293F) of 9.18. It also gave a LogAUC (CH505.M7D8gp120/293F) of 0, a LogAUC (CH505.M9D8gp120/293F) of 0 and a LogAUC [2] of 0. The LogAUC [3] was 6.1, the LogAUC [4] was 0 and the LogAUC (CH505.w30.12D8gp120) was 2.4. It also gave a LogAUC (CH505w020.14D8gp120) of 6.52, a LogAUC (CH505w030.20D8gp120/293F) of 4.82 and a LogAUC (CH505w136.B18D8gp120) of 2.36. The AtheNA signal (relative luminescence units) (Centromere B [5]) was 80, the AtheNA signal (relative luminescence units) (Histones [6]) was 99 and the AtheNA signal (relative luminescence units) (Jo-1 [7]) was 171. For the same substance, the AtheNA signal (relative luminescence units) (RNP (ribonucleoprotein) [8]) was 67, the AtheNA signal (relative luminescence units) (SSA [9]) was 150 and the AtheNA signal (relative luminescence units) (SSB [10]) was 197. For the same substance, the AtheNA signal (relative luminescence units) (Scl-70 [11]) was 52, the AtheNA signal (relative luminescence units) (Sm (Smith antigen) [12]) was 110 and the AtheNA signal (relative luminescence units) (Histones [13]) was 100. The AtheNA signal (relative luminescence units) (Jo-1 [14]) was 176, the AtheNA signal (relative luminescence units) (SSA [15]) was 149 and the AtheNA signal (relative luminescence units) (SSB [16]) was 217. The AtheNA signal (relative luminescence units) (Sm (Smith antigen) [17]) was 104, the AtheNA signal (relative luminescence units) (Centromere B [18]) was 81 and the AtheNA signal (relative luminescence units) (Histones [19]) was 100. It also gave an AtheNA signal (relative luminescence units) (Jo-1 [20]) of 152, an AtheNA signal (relative luminescence units) (RNP (ribonucleoprotein) [21]) of 56 and an AtheNA signal (relative luminescence units) (SSA [22]) of 151. The AtheNA signal (relative luminescence units) (SSB [23]) was 167, the AtheNA signal (relative luminescence units) (Scl-70 [24]) was 40 and the AtheNA signal (relative luminescence units) (Sm (Smith antigen) [25]) was 77. The AtheNA signal (relative luminescence units) (Centromere B [26]) was 87, the AtheNA signal (relative luminescence units) (Histones [27]) was 118 and the AtheNA signal (relative luminescence units) (Jo-1 [28]) was 129. For the same substance, the AtheNA signal (relative luminescence units) (RNP (ribonucleoprotein) [29]) was 46, the AtheNA signal (relative luminescence units) (SSA [30]) was 175 and the AtheNA signal (relative luminescence units) (SSB [31]) was 117. The AtheNA signal (relative luminescence units) (Scl-70 [32]) was 31, the AtheNA signal (relative luminescence units) (Sm (Smith antigen) [33]) was 77 and the IC50 [34] was greater than 100 µg/mL. It also gave an IC50 [35] of 82.4 µg/mL.

Reference: patent US10450368
